Assay results published in the supplement of paper PMC10567573.

B1: TRIM43 (parent)
chain: NNSWIRKNSTMVNSEDIFLLLCLK

Variants of: B1
Assay: protein stability index of a GFP-peptide fusion (GPS, HEK-293T) (PSI 1-6); higher = more stable
Conditions: c terminus: a fixed tail appended
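Note: lentivirally expressed fusions sorted by FACS into six bins by GFP to DsRed ratio, PSI derived from sequencing read proportions per bin multiplied by bin number.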

Protein stability index of substitutions, site by site:
S14: A 3.2; C 2.79; D 2.77; E 2.08; F 2.64; H 2.12; I 2.62; K 2.36; L 2.31; M 2.13; N 2.82; P 2.1; Q 3.26; R 2.77; T 2.17; V 3.6; Y 2.89
E15: A 3.44; C 2.74; F 2.69; G 2.29; H 2.77; I 2.72; K 2.89; L 2.44; M 2.26; N 2.88; P 1.87; Q 4.22; R 1.25; S 2.47; T 1.65; V 3.11; W 2.01; Y 3.03
D16: A 1.59; C 3.95; E 3.13; F 2.37; G 2.5; H 1.71; I 2.17; K 3.16; L 2.59; M 2.45; N 4.97; P 2.23; Q 2.49; R 2.8; S 1.7; T 2.47; V 2.92; W 3.2; Y 2.65
I17: A 2.04; C 3.18; D 1.93; E 3.62; F 2.21; G 2.04; H 2.5; K 2.62; L 3.15; M 2.26; N 1.85; P 1.93; Q 3.35; R 2.7; S 2.6; T 2.42; V 2.24; W 2.16; Y 2.83
F18: A 1.7; C 2.71; D 2.42; E 1.47; G 1.51; H 2.42; I 3.7; K 2.23; L 2.54; M 4.64; N 1.54; P 1.85; Q 2.5; R 2.63; S 1.64; T 1.83; V 2.92; W 2.46; Y 4.65
L19: A 2.25; C 2.32; D 2.01; E 1.79; F 2.07; G 1.8; H 1.7; I 2.63; K 1.54; M 2.08; N 1.83; P 1.95; Q 2.21; R 1.7; S 1.63; T 1.69; V 3.1; W 2.33; Y 3.02
L20: A 2.14; C 2.25; D 2.27; E 1.75; F 2.92; G 1.48; H 2.5; I 2.64; K 2.36; M 3.31; N 3; P 2.46; Q 3.05; R 1.72; S 2.28; T 2.72; V 2.57; W 3.12; Y 2.75
L21: A 2.13; C 3.87; D 1.92; E 3.8; F 1.95; G 1.83; H 2.39; I 3.08; K 2.58; M 3.25; N 1.58; P 2.37; Q 2.44; R 1.94; S 2.65; T 2.96; V 3.54; W 2.91; Y 2.9
C22: A 1.91; D 1.94; E 2.33; G 2.32; H 2.62; I 2.66; K 2.13; L 3.17; M 2.61; N 2.32; P 2.44; Q 2.06; R 1.91; S 2.72; T 2.19; V 2.96; W 2.66; Y 3.36
